B1: TPR t1 (parent)
chain: GACCAAUCUGCCCUCAGAGCUCGAGAACAUCUUCGGAUGCAGAGGAGGCAGGCUUCGGUGGCGCGAUAGCGCCAACGUCCUCAACCUCCAAUGCAUCCCACCACAUGAUGAUGCCUGAAGAGCCUUGGUUUUUUG

Variants of: B1
Assay: polymerase ribozyme fitness, log enrichment relative to wild type (log ratio); higher = more active; in vitro selection for triplet polymerase activity
How it was run: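 Fitness is a logarithmic measure of how a genotype enriched relative to the wild type, with replicate averages weighted by inverse variance. The logarithm uses base 2, and enrichment came from Illumina sequencing of input and output libraries. Those libraries were PCR-built, transcribed mutants of each subunit of a heterodimeric triplet polymerase ribozyme, passed through one triplicate in vitro selection round that included frozen incubation at −7 °C, gel excision of extended constructs and streptavidin-bead capture. Genotypes were kept only if they had ≥10 input reads and ≥1 read per output.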

Variant	polymerase ribozyme fitness (log ratio)
A29C G45A C115U	-4.57
A29C C49A G77A U78A	-3.15
A29G G61A C99A U112C C124A G135C	-5.36
A29G C56G C62A	-4.43
C28U C72U U112A G122A U129A	-4.79
A29C G63A G120U	-3.1
C28U A121U	0.361
C28G C56A G110U C124U	-0.0721
C28U C86U	-2.31
C28U A46U C94G	-4.44
C28U A105C	-4.77
A29G C40A C97U G113C	-4.13
C28U C49U G60U A75G	-3.76
C28U G36C C79G A111U	-6.86
C28U C53G U59G	-2.35
C28G G47U C53U	-4.48
A29G U112A	0.263
C28G U33A C53A C114U G128U U133A	-7.29
C28U G113C C123G	-3.9
A29G A50U C70G G113A	-5.1
A29C G93A	-3.03
A29C C79U	-3.18
A29U C56A	-2.25
A29U C56U	-1.54

Variant	polymerase ribozyme fitness (log ratio)
A29U G42U G52A U109G	-2.63
A29G C115U	-1.56
A29G A37G G63A C88U A111C	-3.49
A29G U116A	-3.67
C28G G63C U129A	-4.76
C28G C56G	-3.01
C28G C56U	-2.39
A29U A46G G60U A91C	-2.59
C28G C64U U81A G93U C101U U112G	-5.16
A29G G51A	-3.06
C28U U112A	-1.56
C28U U112C	0.129
C28U U112G	-1.97
A29G G60C A74U	-3.15
A29C C73U U96A	-5.54
C28G C73G C104A A111C	-4.53
A29U A84G U87G	-2.37
A29U C94U A121U	-0.384
A29G A43G	-2.43
C28U G45A G63C	-3.75
C28G G63U C70G C88A U106A U125G G128C	-4.76
C28G G110A	-1.49
A29U A118U	-1.3
A29C G47U G60C C97U	-6

Variant	polymerase ribozyme fitness (log ratio)
A29G U81C A100U	-3.08
A29G A37C G71U G117U	-4.47
C28U G47A G60C	-3.22
A29G A91C	-1.57
C28G G36U C72U C73U	-4.2
A29U C72U U92C	-2.98
A29G U92A	-3.71
A29C G61A C88G C114G	-6.84
C28U C88U	-1.61
A29C C62A	-3
A29U G44A G110A U125A	-3.17
C28U C79G	-4.3
C28U C49G	-3.16
C28G G60A	-3.53
C28G C53A	-1.99
C28U C64U	-2.29
C28U A46U A74U	-3.5
C28U U92C	-3.43
A29U A37U G60U C89U	-3.5
A29G U131C	-1.02
A29G G117C	-3.99
A29G G117A	-2.22
A29G G47A G51U C123G U129A U133G	-5.68
C28G U54C A68G G110U	-3.67

Variant	polymerase ribozyme fitness (log ratio)
C28G C56G G61A G77A	-2.42
C28G G45U	-4.17
C28G C53U C56G G77A C88U	-1.92
A29G G45A A121C G128C	-2.4
C28G G63A	-4.42
A29U A37U G44C C72G C114U	-4.21
C28U C123A	-1.91
C28G G93U A119G U129C	-4.2
A29G C85G C88U	-2.58
A29U C124U U131A	-0.63
C28U G71A C89A C123G U130C	-3.76
C28U A37U G44U A90C	-3.61
C28G U32C G51U C79G	-5.29
C28U G47U C56U	-3.24
C28G C98U	-4.78
A29G C31G U55G C124U	-6.79
A29G G45U C73U U78G U87G	-2.9
C28U U129G	-2.18
A29G C62U	-1.68
A29G G60A U109A U112A G122A U130G	-6.7
A29C A121U	0.0449
A29C A50U C123U U129G	-4.5
A29U C97A A121U	-4.33
A29G C40U G63A C104U G122A	-2.07

Variant	polymerase ribozyme fitness (log ratio)
C28G U32C G69C U78C C86G G117U C123U	-7.36
A29C G44C C53U C85A C124G	-4.76
A29G A43U G61U U116C G117U	-0.773
A29G A37U C89U C94U C123A U126A	-3.13
A29C C124G	-0.564
A29C C124A	-0.296
A29G C62U A118U G120C	-1.4
C28G G57C A83C C123A	-2.8
A29G G63C	-1.45
C28G C114U	-5.68
C28G U59A	-3.18
A29C G61C U87A	-4.41
A29G G71U A83U	-1.51
A29G G52U C70U U125A	-2.42
C28G C72U	-3.07
A29C G51A	-6.28
C28G G47A C56U U116G	-5.77
C28G C94A	-4.49
C28U A84G A90C G113C	-5.73
A29G U55C G63U U87A G113C	-4.13
C28G G58C C94A	-3.94
A29G A46C A50G U54C G120U C123A U129C	-4.1
C28G G69U	-0.552
C28G G47C	-3.69

Variant	polymerase ribozyme fitness (log ratio)
A29G A50U C73G	-1.85
C28U A43C	-4.69
A29U C62A U112C G127C	-3.28
C28U A29G C72U U112A C124U	-7.83
A29G C31A C56G C99A A121G U129C	-7.31
A29G U59G G60U U130G	-2.01
C28U G44U C56A	-4.15
A29C C56U U81A	-2.74
A29G C53A A90C C101U G113C	-2.81
A29C G45C G52A C85U	-5.05
A29C C64A U109G G113A	-6.15
C28G G93U	-3.89
A29G C94A	-2.09
A29G C72G	-1.98
A29G C72U	-1.98
A29C A37G G47U C101U G110U	-5.5
A29U C40A U109C U130G	-6.92
A29U C56U C123U	-0.0509
C28U C73U	-1.11
C28U C73G	-2.44
A29G G52A G71U C73U	-4.52
A29G G77A U78A C123A	-2.27
C28U G58C G61C	-2.78
C28U C34A C53G C124A	-4.41

Variant	polymerase ribozyme fitness (log ratio)
A29C G60U U87C	-2.47
A29G G39U C85U C89U	-4.23
A29U C34U A46U U87G	-5.9
C28U U55C U59C	-3.17
C28U C56G	-2.75
C28U C40A	-2.12
C28U C101A C123G G128U	-3.71
A29U A41G C53G	-2.64
C28G C56U C80U	-4.97
C28G U92C C123A	-3.8
C28G G60U C80U C115U G120C C123A U131A	-6.73
A29C G52U G63C	-2.49
A29G C97A U112C	-4.92
A29G A41G C56A G61A C124A	-1.77
A29C G39C	-3.97
A29C G63C U78A U92A G120C	-5.6
A29U G39U G61A G122A	-3.23
C28G U32G C62A A121C	-6.19
A29G G36A C53U U55C G69U G127C	-4.42
C28G U81A U87C	-2.99
A29C C40U A41U G58C G71U C104U U129A	-6.05
C28G U59A C89G A103G C104A U109G C123G U133A	-5.51
A29C C49U	-2.86
